Earlier results in PMC6176727.

Columns and labels:
[1] = biological target: CLV1 (Arabidopsis thaliana) (UniProt Q9SYQ8)
[2] = biological target: CLV1 ectodomain (Arabidopsis thaliana) (UniProt Q9SYQ8)

- Kd [1]: 280 nM
- Kd [2]: 1 nM
Substance: CLV3p (13-amino-acid) (from UniProt Q9XF04)
